Patent EP2787008B1 (Samsung Electronics Co., Ltd., dated 2019)

Molecular target: T1, huAbF46-H4-A1 (IgG2 Fc)
T1 construct: Human IgG2 hinge and constant region, human kappa; also called anti-c-Met antibody; biotinylated anti-c-Met antibody
Test: SPR, Biacore (GE healthcare); format not stated

T1 sequence (VH, as listed by the source, chain 1 of 2): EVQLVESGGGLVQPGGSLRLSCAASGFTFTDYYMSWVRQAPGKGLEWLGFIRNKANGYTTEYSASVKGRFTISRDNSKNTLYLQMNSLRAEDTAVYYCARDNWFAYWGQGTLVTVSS
T1 sequence (VL, as listed by the source, chain 2 of 2): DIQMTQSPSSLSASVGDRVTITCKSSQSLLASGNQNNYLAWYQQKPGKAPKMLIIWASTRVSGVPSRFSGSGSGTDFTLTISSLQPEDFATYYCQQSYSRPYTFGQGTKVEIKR

- Kd: 38.4 nM
- koff: 0.0032 s⁻¹
- kon: 85000 M⁻¹ s⁻¹
B1: EW02 (antibody, human IgG1, V domains shown)
VH: EVQLLESGGGLVQPGGSLRLSCAASGFTFSNYAMSWVRQAPGKGLEWVSSISSSGGNTYYADSVKGRFTISRDNSKNTLYLQMNSLGAEDTAVYYCAKYHSVFDYWGQGTLVTVSS
VL: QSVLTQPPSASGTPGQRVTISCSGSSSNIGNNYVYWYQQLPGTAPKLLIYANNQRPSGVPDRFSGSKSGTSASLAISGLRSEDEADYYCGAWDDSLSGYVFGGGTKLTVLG
notes: also called EW02 antibody
